Measured values published in patent US10947296B2, “Fusion protein Slit2D2(C386S)-HSA and use thereof in treatment of fibrotic diseases” (SUZHOU THINKING POWER BIOTECHNOLOGY CO., LTD., priority 2016, dated 2021).

Columns and labels:
[1] = test system: pulmonary fibrosis model; test: Efficacy on bleomycin-induced pulmonary fibrosis model; format: in vivo; parameters: body weight of the animals (Mean ± SEM) / Weight of the left lung (Mean ± SEM) / Volume of the left lung (Mean ± SEM): unit not given here; conditions: for Volume of the left lung (Mean ± SEM) / Weight of the left lung (Mean ± SEM): after formalin perfusion, day 14
Protocol: Animals were anesthetized by inhaling isoflurane. After confirmation of anesthesia, the animals were sterilized, then the neck skin was cut, the muscles were bluntly separated to expose the trachea, and bleomycin (dosage: 3 mg/kg, volume: 1.0 mL/kg) was directly injected between the tracheal rings. After the operation, the animals were placed in a 37° C. electric blanket to keep warm until the animals were completely awakened. After confirming that they were able to eat and drink freely, the animals were returned to the cage for normal feeding.
In this experiment, there were four groups, i.e., model group (experimental group-1, […]), PFD group (experimental group-2, n=6), Slit2D2(C386S)-HSA-1 mg/kg (experimental group-3, n=6), and Slit2D2(C386S)-HSA-5 mg/kg (experimental group-4, n=6).
In this experiment, the positive control drug (PFD) was given to rats by gavage twice a day, which was started on the day of modeling, and administered continuously for 14 days. The test compound (Slit2D2(C386S)-HSA) was given intravenously once every other day, which was started on the day of modeling, and a total of seven doses were administered (as shown in table 6).
Physiological observation of the experimental animals: changes in body weight of the animals were measured (body weight was measured once a day before administration); and the death rate of animals during the test period was monitored.
Animals were euthanized 24 hours after the last administration on the 14th day of modeling. After confirming the death of the animals, the left lung was fixed by intrapulmonary infusion of formalin, and the volume and weight of the left lung after perfusion were measured for relevant examination of the pulmonary pathology.
General pathological examination: After the perfusion with an equal amount of formalin in the left lung, the wet weight of left lung after perfusion was weighed/recorded with a micro-balance; and the volume of left lung after perfusion was measured and recorded using a micro-measuring cup.
Pathological examination of lung tissue: The whole lung was dehydrated. Lung paraffin sections were made with paraffin blocks. […] HE staining and Masson Trichrome staining were performed according to pathological staining SOP, and whole section scanning was performed using a Digital Pathscope slice scanner. Pathological analysis and scoring of changes in damage and inflammation of terminal bronchioles and accompanying small pulmonary artery at the periphery of the lesions (as shown in Tables 7 and 8 and FIG. 7) were performed using the HE-stained sections. Lesion area calculation, lesion pathology analysis and scoring were performed with the Masson Trichrome-stained sections (as shown in Table 9 and FIG. 8).
The mean±sd or mean±sem was calculated using the graphpad prism software, and the significant difference test was performed using t-test, one-way ANOVA and two-way ANOVA test. A significant difference between the two groups was considered at p<0.05.

[2] = target: T1, Robo1 protein (Homo sapiens, UniProt Q9Y6N7); test: Affinity of the fusion protein to receptor Robo1 determined by SPR; format: binding; conditions: Robo1 bound to CM5 chip
T1 construct: purchased ORIGEN TP327713
Protocol: The affinity constant between the protein and Robo1 protein was detected by SPR (Surface Plasmon resonance BIAcore 200) method. The Robo1 protein (ORIGEN, Art. No.: TP327713) was bound to a CM5 chip, and the interaction between the fusion protein Slit2D2(C386S)-HSA (prepared in Example 1), Slit2D2-HSA (as disclosed in Patent Application PCT/CN2015/092079), and the receptor protein Robo1 were analyzed. Kinetic measurements were performed according to the method referred by Canziani et al. (2004, Anal. Biochem. 325: 301-307). Furthermore, the affinity of the Slit2N protein (Slit2N is a protein having a molecular weight of about 120 kDa at the N-terminus of the Slit2 protein) to Robo1 protein was also determined by the same method.

T1 sequence (Q9Y6N7 26-1651): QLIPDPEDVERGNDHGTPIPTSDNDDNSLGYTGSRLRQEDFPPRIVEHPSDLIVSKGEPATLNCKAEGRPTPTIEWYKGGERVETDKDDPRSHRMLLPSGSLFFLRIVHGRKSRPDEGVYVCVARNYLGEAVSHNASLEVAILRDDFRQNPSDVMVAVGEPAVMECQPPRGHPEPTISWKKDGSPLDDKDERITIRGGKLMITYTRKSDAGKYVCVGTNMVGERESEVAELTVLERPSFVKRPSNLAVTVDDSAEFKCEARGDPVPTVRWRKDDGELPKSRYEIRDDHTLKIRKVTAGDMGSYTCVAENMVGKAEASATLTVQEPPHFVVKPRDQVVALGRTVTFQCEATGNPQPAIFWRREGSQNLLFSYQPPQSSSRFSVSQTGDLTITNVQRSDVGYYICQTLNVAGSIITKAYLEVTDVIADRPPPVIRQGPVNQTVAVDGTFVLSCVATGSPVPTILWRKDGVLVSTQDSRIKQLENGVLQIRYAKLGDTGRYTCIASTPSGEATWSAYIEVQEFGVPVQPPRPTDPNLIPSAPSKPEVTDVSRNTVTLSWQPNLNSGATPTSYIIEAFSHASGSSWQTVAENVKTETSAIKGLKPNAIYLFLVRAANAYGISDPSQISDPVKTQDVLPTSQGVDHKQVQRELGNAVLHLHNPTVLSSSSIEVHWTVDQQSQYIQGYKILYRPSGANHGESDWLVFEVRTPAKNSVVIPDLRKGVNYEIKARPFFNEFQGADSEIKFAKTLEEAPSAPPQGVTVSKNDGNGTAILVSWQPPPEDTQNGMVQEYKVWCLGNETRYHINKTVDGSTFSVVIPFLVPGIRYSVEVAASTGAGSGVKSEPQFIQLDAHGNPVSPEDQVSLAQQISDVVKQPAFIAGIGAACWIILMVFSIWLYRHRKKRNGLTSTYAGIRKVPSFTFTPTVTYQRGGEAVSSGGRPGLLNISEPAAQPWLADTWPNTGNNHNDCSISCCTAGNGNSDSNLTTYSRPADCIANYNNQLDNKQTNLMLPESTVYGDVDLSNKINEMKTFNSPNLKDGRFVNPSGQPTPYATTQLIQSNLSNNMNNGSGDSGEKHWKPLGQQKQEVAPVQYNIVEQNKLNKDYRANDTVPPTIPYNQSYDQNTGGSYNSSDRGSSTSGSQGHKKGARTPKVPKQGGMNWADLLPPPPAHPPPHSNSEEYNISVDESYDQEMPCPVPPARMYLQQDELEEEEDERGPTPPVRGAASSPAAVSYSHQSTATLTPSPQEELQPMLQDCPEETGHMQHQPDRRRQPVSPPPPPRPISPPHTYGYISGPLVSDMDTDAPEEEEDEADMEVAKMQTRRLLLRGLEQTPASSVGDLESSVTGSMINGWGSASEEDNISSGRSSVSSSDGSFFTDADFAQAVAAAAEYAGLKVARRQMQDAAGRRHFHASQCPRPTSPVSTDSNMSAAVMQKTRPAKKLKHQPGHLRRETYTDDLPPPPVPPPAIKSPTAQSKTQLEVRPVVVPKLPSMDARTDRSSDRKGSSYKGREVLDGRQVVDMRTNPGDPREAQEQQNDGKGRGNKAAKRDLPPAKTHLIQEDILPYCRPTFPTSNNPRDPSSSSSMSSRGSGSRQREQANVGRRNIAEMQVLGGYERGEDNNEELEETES

Slit2D2(C386S)-HSA: Fusion protein of the Slit2 D2 domain with C386S mutation linked to human serum albumin; amino acid sequence SEQ ID NO: 3
inhibiting pulmonary fibrosis, compared with positive compound (PFD) ([1]; 5 mg/kg dose group, iv Q2D): superior to the positive compound (PFD) | Volume of the left lung (Mean ± SEM) ([1]; 1mpk (BID)): 1.27 ± 0.02 | Weight of the left lung (Mean ± SEM) ([1]; 1mpk (BID)): 1.20 ± 0.03 | body weight of the animals (Mean ± SEM) ([1]; 1mpk Q2D iv, Day 1): 273.8 ± 3.1 | body weight of the animals (Mean ± SEM) ([1]; 1mpk Q2D iv, Day 3): 255.2 ± 3.2 | body weight of the animals (Mean ± SEM) ([1]; 1mpk Q2D iv, Day 5): 262.8 ± 4.7 | body weight of the animals (Mean ± SEM) ([1]; 1mpk Q2D iv, Day 7): 276.7 ± 5.4 | body weight of the animals (Mean ± SEM) ([1]; 1mpk Q2D iv, Day 9): 290.7 ± 6.3 | body weight of the animals (Mean ± SEM) ([1]; 1mpk Q2D iv, Day 11): 302.7 ± 6.9 | body weight of the animals (Mean ± SEM) ([1]; 1mpk Q2D iv, Day 13): 310.3 ± 7.8 | Volume of the left lung (Mean ± SEM) ([1]; 5mpk (BID)): 1.32 ± 0.03 | Weight of the left lung (Mean ± SEM) ([1]; 5mpk (BID)): 1.31 ± 0.07 | body weight of the animals (Mean ± SEM) ([1]; 5mpk Q2D iv, Day 1): 272.7 ± 1.8 | body weight of the animals (Mean ± SEM) ([1]; 5mpk Q2D iv, Day 3): 251.8 ± 2.3 | body weight of the animals (Mean ± SEM) ([1]; 5mpk Q2D iv, Day 5): 245.0 ± 5.0 | body weight of the animals (Mean ± SEM) ([1]; 5mpk Q2D iv, Day 7): 258.3 ± 4.4 | body weight of the animals (Mean ± SEM) ([1]; 5mpk Q2D iv, Day 9): 272.5 ± 5.0 | body weight of the animals (Mean ± SEM) ([1]; 5mpk Q2D iv, Day 11): 284.3 ± 5.9 | body weight of the animals (Mean ± SEM) ([1]; 5mpk Q2D iv, Day 13): 292.2 ± 5.6 | inhibition on the progression of pulmonary fibrosis ([1]; intravenous, every other day for 2 weeks, 1 and 5 mg/kg): significant inhibition on the progression of pulmonary fibrosis, with a dose-dependent trend | Ka [2]: 864700 M⁻¹ s⁻¹
